Data set [1] deals with HeLa Kyoto. As to the kind of experiment: melting temperature (median over replicates), in situ; higher = more thermally stable.
Data set [2] has as its system HeLa Kyoto. As to the kind of experiment: solubility in G1/S (NP-40 vs SDS abundance) (log2 ratio); higher = more soluble. The conditions noted are these: cell cycle stage: G1/S.
Data set [3] relates to HeLa Kyoto. Nature of the data set: solubility change mitosis vs G1/S (difference of NP-40 vs SDS log2 ratios) (log2 ratio difference); higher = more soluble in mitosis.
The test system of data set [4] is HeLa Kyoto. Nature of the data set: thermal stability score vs G1/S (z-score of summed log2 fold changes over temperatures); higher = more thermally stable than in G1/S.
The mark [5] stands for this setting: cell cycle stage: early G1 (4.5 h after nocodazole release).
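Throughout, for melting temperature (median over replicates), in situ: HeLa Kyoto cells synchronized by double thymidine or nocodazole block, proteins quantified by TMT10plex mass spectrometry, three independent biological replicates.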
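Throughout, for solubility change mitosis vs G1/S (difference of NP-40 vs SDS log2 ratios): synchronized HeLa Kyoto cells (double thymidine block for G1/S, nocodazole release for mitosis), protein amounts in NP-40 versus SDS lysates quantified by mass spectrometry, three biological replicates.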
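Throughout, for solubility in G1/S (NP-40 vs SDS abundance): HeLa Kyoto cells arrested at G1/S by double thymidine block, proteins quantified by TMT10plex mass spectrometry in mild NP-40 versus SDS extracts, three biological replicates.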
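Throughout, for thermal stability score vs G1/S (z-score of summed log2 fold changes over temperatures): synchronized HeLa Kyoto cells, proteins quantified by TMT10plex mass spectrometry, three biological replicates, mitosis taken 0.5 h after nocodazole release, G1/S directly after double thymidine block.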

Chain of RABGAP1 (chain, as listed by the source): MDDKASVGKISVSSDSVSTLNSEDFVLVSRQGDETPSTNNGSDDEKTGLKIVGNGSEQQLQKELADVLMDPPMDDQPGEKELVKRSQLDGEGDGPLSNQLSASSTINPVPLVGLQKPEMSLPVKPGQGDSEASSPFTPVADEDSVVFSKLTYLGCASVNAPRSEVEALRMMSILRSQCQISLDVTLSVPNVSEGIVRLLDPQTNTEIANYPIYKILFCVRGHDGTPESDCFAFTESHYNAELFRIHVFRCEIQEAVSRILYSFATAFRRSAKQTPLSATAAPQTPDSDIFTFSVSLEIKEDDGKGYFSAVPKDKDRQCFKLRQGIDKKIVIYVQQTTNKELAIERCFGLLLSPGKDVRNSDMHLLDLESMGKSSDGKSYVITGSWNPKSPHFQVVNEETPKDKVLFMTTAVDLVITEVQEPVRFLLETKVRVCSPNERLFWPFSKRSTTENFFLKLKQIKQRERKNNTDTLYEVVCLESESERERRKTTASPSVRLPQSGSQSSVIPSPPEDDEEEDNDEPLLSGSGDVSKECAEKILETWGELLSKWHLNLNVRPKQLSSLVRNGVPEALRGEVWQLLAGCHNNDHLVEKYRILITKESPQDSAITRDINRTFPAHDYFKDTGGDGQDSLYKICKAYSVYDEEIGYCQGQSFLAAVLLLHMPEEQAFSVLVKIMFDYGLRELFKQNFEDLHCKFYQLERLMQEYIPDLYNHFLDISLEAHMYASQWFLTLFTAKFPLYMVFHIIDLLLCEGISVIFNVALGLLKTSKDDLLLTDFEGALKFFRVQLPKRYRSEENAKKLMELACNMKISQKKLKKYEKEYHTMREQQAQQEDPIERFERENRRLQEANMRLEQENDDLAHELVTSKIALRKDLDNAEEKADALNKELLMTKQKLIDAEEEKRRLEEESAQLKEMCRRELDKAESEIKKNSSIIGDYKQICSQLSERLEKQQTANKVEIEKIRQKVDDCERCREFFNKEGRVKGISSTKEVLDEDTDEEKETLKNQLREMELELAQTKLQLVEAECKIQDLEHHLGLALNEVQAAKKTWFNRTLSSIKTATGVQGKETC
Chain of RHOC (chain, as listed by the source): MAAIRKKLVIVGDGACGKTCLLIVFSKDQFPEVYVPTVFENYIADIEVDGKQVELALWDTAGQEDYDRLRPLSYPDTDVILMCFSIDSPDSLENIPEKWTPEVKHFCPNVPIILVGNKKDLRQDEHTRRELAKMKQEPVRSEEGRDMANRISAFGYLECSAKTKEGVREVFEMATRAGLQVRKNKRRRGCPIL
Chain of PPCS (chain, as listed by the source): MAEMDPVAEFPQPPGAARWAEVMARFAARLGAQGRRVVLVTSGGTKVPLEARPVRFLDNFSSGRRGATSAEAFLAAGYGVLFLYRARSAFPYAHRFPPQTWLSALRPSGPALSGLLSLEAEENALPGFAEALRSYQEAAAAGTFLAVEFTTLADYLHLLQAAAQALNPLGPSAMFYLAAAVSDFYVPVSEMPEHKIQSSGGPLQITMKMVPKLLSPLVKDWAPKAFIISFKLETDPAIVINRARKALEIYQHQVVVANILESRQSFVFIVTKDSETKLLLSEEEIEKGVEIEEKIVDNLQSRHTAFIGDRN
Chain of SAFB2 (chain, as listed by the source): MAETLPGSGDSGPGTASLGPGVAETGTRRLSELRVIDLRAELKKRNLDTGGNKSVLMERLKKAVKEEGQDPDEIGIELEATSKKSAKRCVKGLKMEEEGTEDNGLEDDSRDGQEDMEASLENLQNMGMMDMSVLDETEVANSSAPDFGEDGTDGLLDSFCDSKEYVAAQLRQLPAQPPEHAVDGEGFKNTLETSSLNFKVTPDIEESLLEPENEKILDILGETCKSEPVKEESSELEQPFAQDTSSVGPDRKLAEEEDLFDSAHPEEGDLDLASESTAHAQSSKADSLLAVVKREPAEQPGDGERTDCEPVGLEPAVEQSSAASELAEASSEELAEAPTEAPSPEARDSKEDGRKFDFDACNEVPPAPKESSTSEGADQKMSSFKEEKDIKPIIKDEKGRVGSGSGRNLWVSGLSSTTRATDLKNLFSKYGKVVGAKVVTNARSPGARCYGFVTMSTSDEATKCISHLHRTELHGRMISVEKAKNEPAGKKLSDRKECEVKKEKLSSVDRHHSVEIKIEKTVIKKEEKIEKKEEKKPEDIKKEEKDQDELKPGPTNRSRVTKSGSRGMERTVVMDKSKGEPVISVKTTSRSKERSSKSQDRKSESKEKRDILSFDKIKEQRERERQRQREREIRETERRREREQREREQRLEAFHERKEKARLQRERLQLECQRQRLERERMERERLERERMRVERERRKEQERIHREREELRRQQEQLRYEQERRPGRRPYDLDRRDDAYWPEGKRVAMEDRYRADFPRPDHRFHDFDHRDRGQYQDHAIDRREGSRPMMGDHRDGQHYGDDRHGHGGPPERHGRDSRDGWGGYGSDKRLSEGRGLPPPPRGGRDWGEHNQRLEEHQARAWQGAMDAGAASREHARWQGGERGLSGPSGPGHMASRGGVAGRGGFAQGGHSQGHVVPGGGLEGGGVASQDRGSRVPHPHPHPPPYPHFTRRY
Chain of PUDP (chain, as listed by the source): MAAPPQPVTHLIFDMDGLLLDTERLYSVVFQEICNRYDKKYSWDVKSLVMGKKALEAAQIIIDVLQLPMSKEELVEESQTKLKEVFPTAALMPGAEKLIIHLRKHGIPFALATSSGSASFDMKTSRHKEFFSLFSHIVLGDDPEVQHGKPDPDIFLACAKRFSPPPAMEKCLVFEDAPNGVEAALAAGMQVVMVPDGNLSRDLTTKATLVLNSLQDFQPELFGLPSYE
Chain of PTBP1 (chain, as listed by the source): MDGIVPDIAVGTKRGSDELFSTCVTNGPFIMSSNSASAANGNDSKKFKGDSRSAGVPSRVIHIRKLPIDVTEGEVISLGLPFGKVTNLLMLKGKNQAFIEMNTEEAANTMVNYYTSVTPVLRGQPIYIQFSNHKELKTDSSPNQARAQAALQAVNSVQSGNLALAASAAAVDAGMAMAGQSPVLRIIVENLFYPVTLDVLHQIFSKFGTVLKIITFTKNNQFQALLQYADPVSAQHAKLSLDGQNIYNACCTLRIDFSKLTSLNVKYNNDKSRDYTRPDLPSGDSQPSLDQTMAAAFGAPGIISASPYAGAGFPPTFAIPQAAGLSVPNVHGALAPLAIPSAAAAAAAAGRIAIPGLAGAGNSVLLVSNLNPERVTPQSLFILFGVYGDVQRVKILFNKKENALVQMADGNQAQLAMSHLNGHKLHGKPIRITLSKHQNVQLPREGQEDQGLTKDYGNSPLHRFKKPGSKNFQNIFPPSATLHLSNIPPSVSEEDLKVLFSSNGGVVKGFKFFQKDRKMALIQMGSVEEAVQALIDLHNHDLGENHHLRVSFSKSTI
Chain of PSMA6 (chain, as listed by the source): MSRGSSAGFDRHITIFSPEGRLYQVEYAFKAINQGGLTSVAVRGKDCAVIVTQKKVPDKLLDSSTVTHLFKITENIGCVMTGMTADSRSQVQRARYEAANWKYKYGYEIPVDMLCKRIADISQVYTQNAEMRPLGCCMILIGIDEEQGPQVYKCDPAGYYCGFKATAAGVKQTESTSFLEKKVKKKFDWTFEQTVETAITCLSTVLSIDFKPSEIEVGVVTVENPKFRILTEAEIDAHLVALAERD
Chain of PHF23 (chain, as listed by the source): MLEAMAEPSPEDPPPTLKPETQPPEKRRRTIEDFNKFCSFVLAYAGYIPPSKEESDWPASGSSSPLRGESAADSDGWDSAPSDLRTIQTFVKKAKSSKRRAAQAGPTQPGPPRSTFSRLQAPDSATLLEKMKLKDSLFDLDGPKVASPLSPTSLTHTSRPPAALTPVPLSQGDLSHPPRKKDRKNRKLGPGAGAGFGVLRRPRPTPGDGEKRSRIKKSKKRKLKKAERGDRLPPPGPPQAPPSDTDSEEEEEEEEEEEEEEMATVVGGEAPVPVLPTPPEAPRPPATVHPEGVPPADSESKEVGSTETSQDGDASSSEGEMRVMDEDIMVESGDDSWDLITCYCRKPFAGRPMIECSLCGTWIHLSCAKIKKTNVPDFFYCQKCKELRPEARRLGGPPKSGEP

As to PHF5A, the melting temperature with HeLa Kyoto [1] (cell cycle stage: G1/S) is 53.8 °C; with HeLa Kyoto [1] (cell cycle stage: mitosis), 52.2 °C. Besides, in the data set with HeLa Kyoto [2], the “solubility in G1/S (log2)” value is -0.51. The “solubility change mitosis (log2)” value in the data set on HeLa Kyoto [3] came to 0.276. Besides, the thermal stability score in the data set with HeLa Kyoto [4] (setting [5]) was -3.94; in the data set with HeLa Kyoto [4] (cell cycle stage: mitosis), -5.73.
For PHF23, the melting temperature is 51.1 °C in the data set on HeLa Kyoto [1] (cell cycle stage: G1/S) and 53.2 °C with HeLa Kyoto [1] (cell cycle stage: mitosis). In addition, the “solubility in G1/S (log2)” value with HeLa Kyoto [2] was 0.107. Further, the “solubility change mitosis (log2)” value in the data set on HeLa Kyoto [3] worked out at 0.0233. The thermal stability score was -0.742 in the data set with HeLa Kyoto [4] (setting [5]) and 0.2 in the data set on HeLa Kyoto [4] (cell cycle stage: mitosis).
PIK3C2A: the melting temperature came to 49.3 °C in the data set on HeLa Kyoto [1] (cell cycle stage: G1/S) and 48.6 °C in the data set on HeLa Kyoto [1] (cell cycle stage: mitosis). For the same substance, the “solubility in G1/S (log2)” value with HeLa Kyoto [2] is -0.334. In the data set with HeLa Kyoto [3], the “solubility change mitosis (log2)” value is -0.063. The thermal stability score in the data set with HeLa Kyoto [4] (setting [5]) is -0.0214; in the data set on HeLa Kyoto [4] (cell cycle stage: mitosis), 0.282.
For the substance PPCS, the melting temperature with HeLa Kyoto [1] (cell cycle stage: G1/S) was 52.1 °C; with HeLa Kyoto [1] (cell cycle stage: mitosis), 52.9 °C. In the data set with HeLa Kyoto [2], the “solubility in G1/S (log2)” value is 0.249. Further, in the data set on HeLa Kyoto [3], the “solubility change mitosis (log2)” value was -0.173. In addition, the thermal stability score with HeLa Kyoto [4] (setting [5]) is -0.584; in the data set on HeLa Kyoto [4] (cell cycle stage: mitosis) it was -0.132.
For PPIH, the results for the melting temperature with HeLa Kyoto [1] (cell cycle stage: G1/S) and in the data set with HeLa Kyoto [1] (cell cycle stage: mitosis) were 49.9 °C and 49.5 °C, respectively. Moreover, the “solubility in G1/S (log2)” value in the data set with HeLa Kyoto [2] is 0.00262. Further, in the data set on HeLa Kyoto [3], the “solubility change mitosis (log2)” value is 0.0864. The thermal stability score is 1.19 in the data set on HeLa Kyoto [4] (setting [5]) and 0.86 in the data set on HeLa Kyoto [4] (cell cycle stage: mitosis).
Turning to PSMA6, the values for the melting temperature with HeLa Kyoto [1] (cell cycle stage: G1/S) and in the data set on HeLa Kyoto [1] (cell cycle stage: mitosis) were 62.9 °C and 60.9 °C, respectively. Besides, the “solubility in G1/S (log2)” value with HeLa Kyoto [2] was -0.0362. The “solubility change mitosis (log2)” value with HeLa Kyoto [3] came out at 0.0779. In addition, the thermal stability score in the data set with HeLa Kyoto [4] (setting [5]) is -1.86; with HeLa Kyoto [4] (cell cycle stage: mitosis), -3.6.
As to PTBP1, the figures for the melting temperature in the data set on HeLa Kyoto [1] (cell cycle stage: G1/S) and in the data set on HeLa Kyoto [1] (cell cycle stage: mitosis) were 49.1 °C and 48.6 °C, respectively. Besides, the “solubility in G1/S (log2)” value in the data set on HeLa Kyoto [2] was determined as 0.378. The “solubility change mitosis (log2)” value in the data set with HeLa Kyoto [3] is 0.0339. For the same substance, the thermal stability score with HeLa Kyoto [4] (setting [5]) came to 5.29; with HeLa Kyoto [4] (cell cycle stage: mitosis), 9.17.
Regarding PUDP, the melting temperature with HeLa Kyoto [1] (cell cycle stage: G1/S) came out at 54.5 °C; in the data set on HeLa Kyoto [1] (cell cycle stage: mitosis) it was 55.5 °C. The “solubility in G1/S (log2)” value with HeLa Kyoto [2] worked out at 0.454. Moreover, the “solubility change mitosis (log2)” value in the data set with HeLa Kyoto [3] was -0.0216. Moreover, the thermal stability score in the data set with HeLa Kyoto [4] (setting [5]) was determined as 1.26; in the data set with HeLa Kyoto [4] (cell cycle stage: mitosis) it was 0.384.
On to RABGAP1, for which the melting temperature worked out at 50.9 °C in the data set with HeLa Kyoto [1] (cell cycle stage: G1/S) and 50.5 °C in the data set with HeLa Kyoto [1] (cell cycle stage: mitosis). Moreover, the “solubility in G1/S (log2)” value with HeLa Kyoto [2] was -0.122. Moreover, the “solubility change mitosis (log2)” value with HeLa Kyoto [3] was -0.111. Moreover, the results for the thermal stability score in the data set with HeLa Kyoto [4] (setting [5]) and in the data set on HeLa Kyoto [4] (cell cycle stage: mitosis) were -0.113 and -0.37, respectively.
On to RALGAPA1, for which the melting temperature with HeLa Kyoto [1] (cell cycle stage: G1/S) turned out to be 50.2 °C; with HeLa Kyoto [1] (cell cycle stage: mitosis) it was 50.8 °C. In the data set on HeLa Kyoto [2], the “solubility in G1/S (log2)” value was -0.0986. For the same substance, the “solubility change mitosis (log2)” value in the data set on HeLa Kyoto [3] was -0.16. Moreover, the thermal stability score with HeLa Kyoto [4] (setting [5]) is -0.328; in the data set with HeLa Kyoto [4] (cell cycle stage: mitosis), -0.518.
For RAP1GAP2, the melting temperature in the data set with HeLa Kyoto [1] (cell cycle stage: G1/S) and in the data set with HeLa Kyoto [1] (cell cycle stage: mitosis) was 50.3 °C in each case. The “solubility in G1/S (log2)” value in the data set with HeLa Kyoto [2] worked out at 0.164. Besides, in the data set with HeLa Kyoto [3], the “solubility change mitosis (log2)” value amounted to 0.327. Also, the thermal stability score in the data set on HeLa Kyoto [4] (setting [5]) amounted to 0.21; in the data set on HeLa Kyoto [4] (cell cycle stage: mitosis), 0.699.
In the case of RHOC, the melting temperature with HeLa Kyoto [1] (cell cycle stage: G1/S) was 53.8 °C; in the data set on HeLa Kyoto [1] (cell cycle stage: mitosis) it was 54.8 °C. Moreover, the “solubility in G1/S (log2)” value in the data set with HeLa Kyoto [2] came to 0.0468. Moreover, the “solubility change mitosis (log2)” value with HeLa Kyoto [3] was -0.013. The thermal stability score in the data set with HeLa Kyoto [4] (setting [5]) is -0.123; in the data set on HeLa Kyoto [4] (cell cycle stage: mitosis), -1.75.
RREB1: the melting temperature in the data set on HeLa Kyoto [1] (cell cycle stage: G1/S) was determined as 49.4 °C; in the data set on HeLa Kyoto [1] (cell cycle stage: mitosis), 50.8 °C. Also, the “solubility in G1/S (log2)” value in the data set with HeLa Kyoto [2] is -0.318. The “solubility change mitosis (log2)” value in the data set on HeLa Kyoto [3] came to 0.214. The values for the thermal stability score in the data set with HeLa Kyoto [4] (setting [5]) and in the data set with HeLa Kyoto [4] (cell cycle stage: mitosis) were 0.176 and 1.2, respectively.
With RSBN1L, the melting temperature was determined as 54.7 °C in the data set on HeLa Kyoto [1] (cell cycle stage: G1/S) and 53.4 °C with HeLa Kyoto [1] (cell cycle stage: mitosis). Besides, the “solubility in G1/S (log2)” value with HeLa Kyoto [2] is -0.468. The “solubility change mitosis (log2)” value in the data set with HeLa Kyoto [3] came out at 0.0823. The thermal stability score in the data set on HeLa Kyoto [4] (setting [5]) is -0.891; with HeLa Kyoto [4] (cell cycle stage: mitosis), -3.56.
With RSRC2, the melting temperature in the data set on HeLa Kyoto [1] (cell cycle stage: G1/S) turned out to be 51.8 °C; in the data set on HeLa Kyoto [1] (cell cycle stage: mitosis), 52.2 °C. Besides, the “solubility in G1/S (log2)” value with HeLa Kyoto [2] is -0.575. For the same substance, the “solubility change mitosis (log2)” value with HeLa Kyoto [3] was 0.135. In addition, the figures for the thermal stability score with HeLa Kyoto [4] (setting [5]) and in the data set on HeLa Kyoto [4] (cell cycle stage: mitosis) were 2.6 and 0.263, respectively.
Regarding SAFB2, the melting temperature in the data set on HeLa Kyoto [1] (cell cycle stage: G1/S) was 50.3 °C; in the data set with HeLa Kyoto [1] (cell cycle stage: mitosis), 51.4 °C. Besides, in the data set on HeLa Kyoto [2], the “solubility in G1/S (log2)” value was -0.828. For the same substance, the “solubility change mitosis (log2)” value in the data set with HeLa Kyoto [3] amounted to 0.345. The thermal stability score was found to be 0.782 in the data set with HeLa Kyoto [4] (setting [5]) and 0.916 in the data set with HeLa Kyoto [4] (cell cycle stage: mitosis).

The values above are taken from the supplement of paper PMC5998384.
